# Molecular target: Hexa-His tag amidated peptide HHHHHH-CONH2
# Assay: peptides on microspheres, PE anti-mouse IgG, Luminex
substance,measurement,value
"anti-C-term His tag antibody 3D5 (Invitrogen, Carlsbad, Calif.)",binding remaining after amidation of the C terminus (percent),< 15%

# Source: patent US20160054331A1
